Molecular target: T1, Siglec-1 (Homo sapiens, UniProt Q9BZZ2)
T1 construct: Siglec-1 expressed in LPS mDCs capture distinct ganglioside containing vesicles; endogenous in cells; host or cells: LPS-matured monocyte-derived dendritic cells (LPS mDCs) from donor PBMCs
Assay: VLP capture by LPS mDCs pre-incubated with α-Siglec-1 mAbs
Format: cell-based
Settings: 2 μg/ml mAb 7D2 treated with at least 100-fold molar excess of human recombinant protein
Procedure: FIG. 11. Siglec-1 expressed in LPS mDCs capture distinct ganglioside containing vesicles, such as HIV-1 viral-like particles, liposomes, and exosomes. Capture of VLPHIV-Gag-eGFP by LPS mDCs that had been pre-incubated with decreasing concentrations of α-Siglec-1 mAb 7D2 before VLP exposure for 30 min at 37° C.
FIG. 12. Capture of VLPHIV-Gag-eGFP by LPS mDCs that had been pre-incubated with or without 2 μg/ml of α-Siglec-1 mAb 7D2 previously treated or not with at least a 100-fold molar excess of the indicated human recombinant proteins. Of note, Siglec-14 shares 100% of amino acid homology with Siglec-5 in the V-set domain.
FIG. 13. Blocking effect of α-Siglec-1 mAb 7-239. (A) Capture of VLPHIV-Gag-eGFP by LPS mDCs that had been pre-incubated with decreasing concentrations of α-Siglec-1 mAb 7-239 before VLP exposure for 30 min at 37° C. […] (B) Capture of VLPHIV-Gag-eGFP by LPS mDCs that had been pre-incubated with 10 μg/ml of the indicated mAbs before VLP exposure for 3 h at 37° C.

T1 sequence (Q9BZZ2 20-1709): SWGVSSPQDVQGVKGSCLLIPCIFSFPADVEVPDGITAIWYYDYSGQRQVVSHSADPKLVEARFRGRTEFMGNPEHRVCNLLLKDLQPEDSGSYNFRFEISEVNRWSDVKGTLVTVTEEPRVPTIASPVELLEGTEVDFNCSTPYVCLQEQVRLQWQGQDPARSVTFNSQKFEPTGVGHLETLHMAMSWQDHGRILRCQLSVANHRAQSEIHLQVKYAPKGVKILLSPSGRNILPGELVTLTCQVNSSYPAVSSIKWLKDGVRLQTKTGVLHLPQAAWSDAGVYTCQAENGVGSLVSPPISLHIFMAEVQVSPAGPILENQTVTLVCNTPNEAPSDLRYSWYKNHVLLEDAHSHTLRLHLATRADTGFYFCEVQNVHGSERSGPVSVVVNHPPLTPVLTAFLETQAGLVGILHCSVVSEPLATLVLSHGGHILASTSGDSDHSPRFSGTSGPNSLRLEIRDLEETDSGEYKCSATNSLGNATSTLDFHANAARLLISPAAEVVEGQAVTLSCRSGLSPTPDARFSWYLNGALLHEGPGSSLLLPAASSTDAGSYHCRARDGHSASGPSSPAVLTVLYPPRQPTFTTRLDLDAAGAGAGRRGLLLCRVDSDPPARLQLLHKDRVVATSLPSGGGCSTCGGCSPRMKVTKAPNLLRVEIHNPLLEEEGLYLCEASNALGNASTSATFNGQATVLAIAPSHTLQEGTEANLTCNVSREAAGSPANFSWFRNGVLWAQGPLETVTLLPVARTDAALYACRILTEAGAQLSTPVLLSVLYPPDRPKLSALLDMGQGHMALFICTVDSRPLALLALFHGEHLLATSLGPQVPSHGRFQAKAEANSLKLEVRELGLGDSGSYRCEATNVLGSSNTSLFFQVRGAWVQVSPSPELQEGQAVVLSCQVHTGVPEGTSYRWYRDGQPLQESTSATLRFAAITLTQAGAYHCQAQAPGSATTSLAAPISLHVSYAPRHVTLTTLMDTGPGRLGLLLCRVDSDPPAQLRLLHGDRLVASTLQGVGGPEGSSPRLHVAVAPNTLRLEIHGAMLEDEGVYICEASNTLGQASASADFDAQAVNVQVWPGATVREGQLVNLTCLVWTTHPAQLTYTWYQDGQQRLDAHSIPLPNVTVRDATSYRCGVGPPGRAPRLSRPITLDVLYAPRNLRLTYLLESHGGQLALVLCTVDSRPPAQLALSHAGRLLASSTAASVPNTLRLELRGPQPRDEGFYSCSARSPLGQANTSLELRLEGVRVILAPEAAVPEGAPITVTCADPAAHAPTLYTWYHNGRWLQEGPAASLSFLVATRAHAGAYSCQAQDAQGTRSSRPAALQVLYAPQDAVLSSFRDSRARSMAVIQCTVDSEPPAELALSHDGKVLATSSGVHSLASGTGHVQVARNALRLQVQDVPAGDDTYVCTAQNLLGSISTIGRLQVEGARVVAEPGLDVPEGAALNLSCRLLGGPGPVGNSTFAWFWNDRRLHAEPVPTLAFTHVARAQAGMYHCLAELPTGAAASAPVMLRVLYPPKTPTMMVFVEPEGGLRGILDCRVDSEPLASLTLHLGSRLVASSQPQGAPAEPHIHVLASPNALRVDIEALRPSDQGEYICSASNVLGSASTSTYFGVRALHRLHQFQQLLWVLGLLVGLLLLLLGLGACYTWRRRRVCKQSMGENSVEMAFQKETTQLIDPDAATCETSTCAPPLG

| VLP capture by LPS mDCs with mAb 7D2 pre-incubated with purified protein | Molecule |
| --- | --- |
| had no effect | CD83: human recombinant CD83 protein used to pre-treat mAb 7D2 (protein, UniProt Q01151 20-205, looked up) CD83 antigen: TPEVKVACSEDVDLPCTAPWDPQVPYTVSWVKLLEGGEERMETPQEDHLRGQHYHQKGQNGSFDAPNERPYSLKIRNTTSCNSGTYRCTLQDPDGQRNLSGKVILRVTGCPAQRKEETFKKYRAEIVLLLALVIFYLTLIIFTCKFARLQSIFPDFSKAGMERAFLPVTSPNKHLGLVTPHKTELV |
| had no effect | purified Siglec-7: human recombinant Siglec-7 protein used to pre-treat mAb 7D2 (protein, UniProt Q9Y286 19-467, looked up) Sialic acid-binding Ig-like …: QKSNRKDYSLTMQSSVTVQEGMCVHVRCSFSYPVDSQTDSDPVHGYWFRAGNDISWKAPVATNNPAWAVQEETRDRFHLLGDPQTKNCTLSIRDARMSDAGRYFFRMEKGNIKWNYKYDQLSVNVTALTHRPNILIPGTLESGCFQNLTCSVPWACEQGTPPMISWMGTSVSPLHPSTTRSSVLTLIPQPQHHGTSLTCQVTLPGAGVTTNRTIQLNVSYPPQNLTVTVFQGEGTASTALGNSSSLSVLEGQSLRLVCAVDSNPPARLSWTWRSLTLYPSQPSNPLVLELQVHLGDEGEFTCRAQNSLGSQHVSLNLSLQQEYTGKMRPVSGVLLGAVGGAGATALVFLSFCVIFIVVRSCRKKSARPAADVGDIGMKDANTIRGSASQGNLTESWADDNPRHHGLAAHSSGEEREIQYAPLSFHKGEPQDLSGQEATNNEYSEIKIPK |

Reference: patent US9789130B2, “Method for blocking HIV entry into dendritic cells by inhibiting sialoadhesin-sialyllactose binding interactions with gangliosides” (LABORATORIOS DEL DR. ESTEVE, S.A., priority 2011, dated 2017)
